Laboratory results: PMC2552378

B1: TbEK1 (formerly TbC/EK1) (Trypanosoma brucei brucei TREU927) (protein)
chain: MEVAVGHVRHVPCTVPDDPASRMRAIREIVARHCALFMQKGGDVGRSQCASNLGNNITSGTSNGFDADRLQVVAFSGGITNEMYHVYCEGWEAHSVVMRIFGKETERVISRGDELFYQSLFIPTYVRGQNFLVYQYLYQYEPLPFVEMVKEYEKIARGIAFFHVRATLEARSDYSVTPVGGVVGAGGATVGPTNTCSRFDLEENYIVHSLTEWVEQALSETVQEKVDATKRATYASVAQQLKEEAQWLLPLMQRHSPELGESTCHNDLLSGNIMRQKSDGALKIIDFEYAKRNYFLFDIANHFNEYTGLECDYATYFPSEEHMKKFVTTYMCAMREELEKHAEEAKRRQLTDIIPGQQHFFMCDVGGVEGDKRIHRMVQLVKLLTLASHLSWSVWALLQEAVSKTDMDFLRYSQLRLSRYLETRKEFSASS
B2: TbC/EK2 (Trypanosoma brucei brucei TREU927) (protein)
chain: MALRPFPLGNTPLHAVIRRSAREFECVEAVPASNAVRSPSTASWVSAESLDSIISLANRTSEEMEVDQLIYRLCRSLYHVAKKKSAQIHCHPNHQERQQQQQQASSSGWRSVECEGHFSNMRGREDWCPLLHLFDPRSYYKVMGQPSQHDGCKLCGDVVGTESSPEGVSQWLMSELSVTRLTGGNSNHVYRLGHASFPKKAVLLRVYGDGGGGDVIDRARDIKVMRLMSKSEMGPGLLHTFHWGRVEEFMDGVLTCTTEKLLTSPSLLADVYGGLSKMHQLDYTPLLPENMRTKGMSNGHNSSQSVSDTVSKSGGGQEGPDGTVGGVNELESTCHTSFERVCLRLLRLVSLNVVEEHRHSLESWLAGEVMFVRRELQYRGIPVVLSHNDLNPGNILLSDGAGEASGTVFSDEELRVENTPLSKRYVTRKGKNMNLVERRGFLFIDFEYADANYRCFDLGNTLCELDYDYTRGTEAGGRGFIKYLFVFPPPAMEEAWRGLGEEYPRMPELIYDAWRRGVCDGSSDIGSVALLAVRRYFAERDNVPLETVELSEAQVGEVLLGMLASHLYWTIWSMTMGSAPDNCVECEDCDDQMFAVGGSGLDYMRYGECRLREYIALRGWLAEKGLLS

Legend:
Experiment in all cases: purified protein
[1] = substrate: Nc1ncnc2c1ncn2[C@@H]1O[C@H](COP(=O)(O)OP(=O)(O)OP(=O)(O)O)[C@@H](O)[C@H]1O; settings: 6 mM MgCl2, 150 mM KCl, 50 mM Mops pH 7.8
[2] = substrate: NCCO; type: biochemical, Trypanosoma brucei; settings: 5 mM ATP, 6 mM MgCl2, 150 mM KCl, 50 mM Mops pH 7.8
[3] = substrate: C[N+](C)(C)CCO; type: biochemical, Trypanosoma brucei; settings: 5 mM ATP, 6 mM MgCl2, 150 mM KCl, 50 mM Mops pH 7.8

Protein	Km ([1]; 2 mM ethanolamine)	kcat ([1]; 2 mM ethanolamine)	kcat/Km ([1]; 2 mM ethanolamine)	Km [2]	kcat [2]	kcat/Km [2]	Km ([1]; 2 mM choline)	kcat ([1]; 2 mM choline)	kcat/Km ([1]; 2 mM choline)	Km [3]	kcat [3]	kcat/Km [3]
B1	219.2 ± 29 µM	6.56 s⁻¹	29900 M⁻¹ s⁻¹	18.4 ± 0.9 µM	6.56 s⁻¹	357000 M⁻¹ s⁻¹	–	–	–	–	–	–
B2	–	–	–	2560 ± 310 µM	12.91 s⁻¹	5040 M⁻¹ s⁻¹	20.6 ± 1.96 µM	12.91 s⁻¹	627000 M⁻¹ s⁻¹	31.4 ± 2.6 µM	12.91 s⁻¹	411000 M⁻¹ s⁻¹
